# According to the supplement of paper PMC7877785:
# ± gives the uncertainty stated by the source.
# Test: self-splicing fitness, log relative to wild type (ln ratio); higher = more splicing; Tetrahymena group I intron in knt gene, E. coli kanamycin selection, DiMSum; sequences stand for … in CUCUCU…GGAGGGAAAAGUUAUCAGGCAUGCACCUGGUAGCUAGUCUUUAAACCAAUAGAUUGCAUCGGUUUAAAAGGCAAGACCGUCAAAUUGCGGGAAAGGGGUCAACAGCCGUUCAGUACCAAGUCUCAGGGGAAACUUUGAGAUGGCCUUGCAAAGGGUAUGGUAAUAAGCUGACGGACAUGGUCCUAACCACGCAGCCAAGUCCUAAGUCAACAGAUCUUCUGUUGAUAUGGAUGCAGUUCACAGACUAAAUGUCGGUCGGGGAAGAUGUAUUCUUCUCAUAAGAUAUAGUCGGACCUCUCCUUAAUGGGAGCUAGCGGAUGAAGUGAUGCAACACUGGAGCCGCUGGGAACUAAUUUGUAUGCGAAAGUAUAUUGAUUAGUUUUGGAGUACUCGUGGUCG
# Outline: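 Library with all eight P1ex-region intron nucleotides randomised, intron inside the knt kanamycin-resistance gene on pET-22b(+), in E. coli BL21(DE3). Cells grew overnight at 37°C or 30°C on LB agar with or without 25 μg/mL kanamycin (plus 100 μg/mL carbenicillin, 50 μM IPTG, 0.2% rhamnose), in six replicate transformations. Pooled colonies were amplicon-sequenced on Illumina HiSeq 2500. DiMSum fitness is the error-weighted combination of wild-type-normalised replicate fold changes, kanamycin versus none.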
Sequence,self-splicing fitness (ln) (30 °C),self-splicing fitness (ln) (37 °C)
GCUCAGCAAUAUUACGAUCA,-0.7 ± 0.19,-0.164 ± 0.17
GCUCAGCAAUAUUACGAUUA,-0.516 ± 0.072,-0.287 ± 0.08
GCUCAGCAAUAUUACGCAUC,-0.653 ± 0.079,-0.186 ± 0.087
GCUCAGCAAUAUUACGCCGU,-0.521 ± 0.14,-1.61 ± 0.22
GCUCAGCAAUAUUACGCGUC,-0.866 ± 0.1,-0.379 ± 0.12
GCUCAGCAAUAUUACGGAGC,,-1.82 ± 0.44
GCUCAGCAAUAUUACGGAGG,-1.44 ± 0.08,-0.504 ± 0.091
GCUCAGCAAUAUUACGGCAA,-1.98 ± 0.16,-1.1 ± 0.17
GCUCAGCAAUAUUACGGCGA,-1.73 ± 0.12,-1.36 ± 0.19
GCUCAGCAAUAUUACGGCGC,-1.44 ± 0.085,-0.248 ± 0.12
GCUCAGCAAUAUUACGGGAC,-0.927 ± 0.27,-0.928 ± 0.26
GCUCAGCAAUAUUACGGUAC,-0.486 ± 0.13,-0.709 ± 0.15
GCUCAGCAAUAUUACGUACU,-0.953 ± 0.087,-0.636 ± 0.086
GCUCAGCAAUAUUACGUCCA,-1.28 ± 0.11,-0.711 ± 0.13
GCUCAGCAAUAUUACGUGCA,-1.12 ± 0.097,-0.787 ± 0.1
GCUCAGCAAUAUUACGUUCU,-0.649 ± 0.074,-0.195 ± 0.09
GCUGAGCAAUAUUACGAGCC,-1.55 ± 0.43,
GCUGAGCAAUAUUACGAGGU,-3.72 ± 0.29,-1.74 ± 0.22
GCUGAGCAAUAUUACGCAAC,-2.18 ± 0.24,-2.11 ± 0.37
GCUGAGCAAUAUUACGCAUG,-2.68 ± 0.13,-1.92 ± 0.17
GCUGAGCAAUAUUACGCCUA,-1.55 ± 0.32,-0.595 ± 0.2
GCUGAGCAAUAUUACGCUGA,-2.99 ± 0.2,-1.15 ± 0.17
GCUGAGCAAUAUUACGCUUC,-2.38 ± 0.15,-3.41 ± 0.39
GCUGAGCAAUAUUACGGACA,-2.53 ± 0.2,-0.488 ± 0.17
GCUGAGCAAUAUUACGGCUU,-2.37 ± 0.24,

Sequence,self-splicing fitness (ln) (30 °C),self-splicing fitness (ln) (37 °C)
GCUGAGCAAUAUUACGGGAA,-4.56 ± 0.42,-2.02 ± 0.21
GCUGAGCAAUAUUACGGGCG,-1.83 ± 0.14,0.15 ± 0.15
GCUGAGCAAUAUUACGGGUC,-4.37 ± 0.46,-1.36 ± 0.24
GCUGAGCAAUAUUACGGGUU,-3.5 ± 0.15,-3.05 ± 0.13
GCUGAGCAAUAUUACGGUUC,-2.48 ± 0.14,-1.69 ± 0.15
GCUGAGCAAUAUUACGUCAA,-3.38 ± 0.47,
GCUGAGCAAUAUUACGUGGG,-2.02 ± 0.16,-2.36 ± 0.26
GCUGAGCAAUAUUACGUGUA,-2.4 ± 0.21,-3.02 ± 0.32
GCUUAGCAAUAUUACGAACA,-1.38 ± 0.16,-0.519 ± 0.19
GCUUAGCAAUAUUACGAACU,-0.838 ± 0.08,0.0658 ± 0.1
GCUUAGCAAUAUUACGACUU,0.0581 ± 0.092,0.248 ± 0.1
GCUUAGCAAUAUUACGAGGU,-4.11 ± 0.21,-2.55 ± 0.18
GCUUAGCAAUAUUACGAGUA,-1.37 ± 0.16,-0.0404 ± 0.14
GCUUAGCAAUAUUACGAGUC,-2.18 ± 0.16,-2.22 ± 0.22
GCUUAGCAAUAUUACGAUUC,-0.128 ± 0.12,0.0621 ± 0.13
GCUUAGCAAUAUUACGCAAC,-2.43 ± 0.22,-0.318 ± 0.13
GCUUAGCAAUAUUACGCCAG,-1.89 ± 0.33,-1.76 ± 0.33
GCUUAGCAAUAUUACGCGUC,-0.947 ± 0.13,-0.88 ± 0.13
GCUUAGCAAUAUUACGGAAA,-2.37 ± 0.25,-0.752 ± 0.17
GCUUAGCAAUAUUACGGAUA,-2.7 ± 0.39,-1.71 ± 0.31
GCUUAGCAAUAUUACGGAUC,-0.319 ± 0.092,0.437 ± 0.11
GCUUAGCAAUAUUACGGCUG,-3.18 ± 0.28,-2.21 ± 0.28
GCUUAGCAAUAUUACGGGUG,-0.826 ± 0.059,-0.144 ± 0.075
GCUUAGCAAUAUUACGGUUC,-0.635 ± 0.098,-0.185 ± 0.12
GCUUAGCAAUAUUACGUCAU,-2.19 ± 0.14,-0.965 ± 0.12

Sequence,self-splicing fitness (ln) (30 °C),self-splicing fitness (ln) (37 °C)
GGAAAGCAAUAUUACGAAAU,-1.52 ± 0.3,-1 ± 0.41
GGAAAGCAAUAUUACGAAUC,-1.73 ± 0.14,-1.5 ± 0.17
GGAAAGCAAUAUUACGACGA,-0.602 ± 0.13,0.0265 ± 0.16
GGAAAGCAAUAUUACGAGCU,-0.199 ± 0.11,0.478 ± 0.12
GGAAAGCAAUAUUACGAGGG,-3.74 ± 0.17,-2.54 ± 0.16
GGAAAGCAAUAUUACGCCCA,0.064 ± 0.16,0.325 ± 0.23
GGAAAGCAAUAUUACGCUCU,-3.11 ± 0.33,
GGAAAGCAAUAUUACGGAUA,-2.59 ± 0.21,-1.55 ± 0.19
GGAAAGCAAUAUUACGGAUG,-2.54 ± 0.17,-2.18 ± 0.21
GGAAAGCAAUAUUACGGCAG,-1.79 ± 0.21,-3.11 ± 0.43
GGAAAGCAAUAUUACGGCGA,-0.475 ± 0.1,-0.211 ± 0.089
GGAAAGCAAUAUUACGUAAA,-1.94 ± 0.1,-0.563 ± 0.11
GGAAAGCAAUAUUACGUAAC,-1.42 ± 0.12,-1.42 ± 0.16
GGAAAGCAAUAUUACGUACC,-2.13 ± 0.46,-2.35 ± 0.49
GGAAAGCAAUAUUACGUCGG,-3.51 ± 0.36,
GGAAAGCAAUAUUACGUGUU,-2.76 ± 0.11,-1.66 ± 0.12
GGAAAGCAAUAUUACGUUGC,-4.27 ± 0.35,-2.2 ± 0.26
GGAAAGCAAUAUUACGUUGG,-3.55 ± 0.2,-2.83 ± 0.34
GGACAGCAAUAUUACGAACA,-0.522 ± 0.18,-0.703 ± 0.18
GGACAGCAAUAUUACGAACG,-0.686 ± 0.08,-0.333 ± 0.1
GGACAGCAAUAUUACGAAGA,-2.27 ± 0.22,-0.517 ± 0.19
GGACAGCAAUAUUACGAGCU,-1.01 ± 0.18,0.191 ± 0.19
GGACAGCAAUAUUACGAGGA,-2.32 ± 0.2,-1.85 ± 0.16
GGACAGCAAUAUUACGAUAG,-3.66 ± 0.25,-2.13 ± 0.23
GGACAGCAAUAUUACGCAAA,-1.19 ± 0.13,-0.67 ± 0.12

Sequence,self-splicing fitness (ln) (30 °C),self-splicing fitness (ln) (37 °C)
GGACAGCAAUAUUACGCAGA,-0.851 ± 0.16,-0.643 ± 0.15
GGACAGCAAUAUUACGCGAG,-1.24 ± 0.058,-0.0238 ± 0.063
GGACAGCAAUAUUACGCGGC,-3.12 ± 0.22,-2.76 ± 0.34
GGACAGCAAUAUUACGCGGG,-2.52 ± 0.1,-0.903 ± 0.091
GGACAGCAAUAUUACGCGUA,-0.744 ± 0.065,-0.68 ± 0.073
GGACAGCAAUAUUACGGCUA,-0.452 ± 0.13,-0.278 ± 0.12
GGACAGCAAUAUUACGGUAU,-0.41 ± 0.066,-0.343 ± 0.09
GGACAGCAAUAUUACGUACC,-1.81 ± 0.32,
GGACAGCAAUAUUACGUCAG,-0.431 ± 0.068,-0.434 ± 0.084
GGACAGCAAUAUUACGUGAU,-0.212 ± 0.061,-0.0525 ± 0.078
GGACAGCAAUAUUACGUGCU,-0.778 ± 0.11,-0.685 ± 0.13
GGACAGCAAUAUUACGUUAC,-2.86 ± 0.2,-2.49 ± 0.26
GGACAGCAAUAUUACGUUCU,-2.91 ± 0.12,-2.45 ± 0.18
GGACAGCAAUAUUACGUUUU,-1.06 ± 0.061,-0.21 ± 0.073
GGAGAGCAAUAUUACGAACA,,-1.93 ± 0.22
GGAGAGCAAUAUUACGAAGA,-3.05 ± 0.44,-1.59 ± 0.39
GGAGAGCAAUAUUACGAAGC,-3.17 ± 0.37,
GGAGAGCAAUAUUACGACAU,-2.642 ± 0.022,-1.55 ± 0.037
GGAGAGCAAUAUUACGACGA,-2.34 ± 0.21,-2.08 ± 0.3
GGAGAGCAAUAUUACGACUU,-2.58 ± 0.19,-0.744 ± 0.16
GGAGAGCAAUAUUACGAUGA,-2.47 ± 0.49,
GGAGAGCAAUAUUACGCCAA,-2.04 ± 0.24,
GGAGAGCAAUAUUACGCCCU,-2.57 ± 0.42,
GGAGAGCAAUAUUACGGCCU,-2.34 ± 0.29,-1.19 ± 0.43
